We go through one substance from paper PMC10093686, “Structural insights into acetylated histone ligand recognition by the BDP1 bromodomain of Plasmodium falciparum” (International journal of biological macromolecules, 2022).

Assay [1] concerns the target PfBDP1-BRD (residues 303–488 or 333–456), bromodomain of P. falciparum Bromodomain Protein 1, as used in ITC (P. falciparum) (UniProt Q8IJ72). Nature of the assay: ITC; histone peptide (2.5–5.0 mM) in the syringe, PfBDP1-BRD (303–488 or 333–456; 100–200 μM) in the sample cell; 5°C; 20 mM sodium phosphate pH 7.5, 150 mM NaCl, 1 mM TCEP; 1:1 binding model, single set of identical sites.

For assay [2] the target is unchanged. The description is as above. The source holds these as a separate data set.

Where two headings read alike, the source gives them in different places.

As to “H4K5acK8acK12acK16ac histone peptide (1–24), tetra-acetylated histone H4”, the Kd (as a rule, the free concentration of one partner at which half of the binding sites on the other are occupied at equilibrium, for simple one-to-one binding) in assay [1] came to 173 µM; in assay [2], 117 µM.
